Experiment [1] deals with T1, GB1-tagged ks-vFLIP (residues 1 to 188) (Kaposi's sarcoma-associated herpesvirus …, UniProt Q76RF1 1-188).
T1 construct: KSHV vFLIP (ks-vFLIP), residues 1 to 188, cloned into GB1-pBR22b (modified pET22b); GB1 is the streptococcal protein G immunoglobulin domain fusion tag; also called GB1–ks-vFLIP; GB1-vFLIP; source: E. coli BL21(DE3), purified (His-trap, Superdex S75 size exclusion); not shown: GB1, N-terminal, kept
Put plainly: ITC; IKKγ(150–272) (~85-100 μM, syringe) titrated into GB1-vFLIP (~8-10 μM, cell); deionized water, 4% DMSO, 25°C; one-site model; apparent. As to conditions: both partners purified.

The target in experiment [2] is T1, GB1-tagged ks-vFLIP (residues 1 to 188). The experiment is described as follows: ITC; competition: GB1–ks-vFLIP first incubated with 20 μM spIKKγ and 4% DMSO, then titrated with IKKγ(150–272); deionized water, 25°C; apparent. As to conditions: both partners purified.

Positions of bridges follow the written chain, without caps; N, C: chain ends. Non-standard residues stand in square brackets, D forms with d. No end group written: not given here. S5 = C=CCCC[C@](C)(N)C(=O)O

B1: IKKγ fragment encompassing residues 150 to 272 (domain or fragment, UniProt Q9Y6K9 150-272, looked up)
chain: LGELQESQSRLEAATKECQALEGRARAASEQARQLESEREALQQQHSVQVDQLRMQGQSVEAALRMERQAASEEKRKLAQLQVAYHQLFQEYDNHIKSSVVGSERKRGMQLEDLKQQLQQAEE
notes: also called IKKγ(150–272); NEMO
For B1, the Kd in experiment [1] was found to be 380 nM. Also, the “apparent Kd in the presence of spIKKγ (20 μM)” value in experiment [2] was found to be 30000 nM. Consider LQVAYH[S5]LFQ[S5]YDNHIKSSC (staple 7-11) [spIKKγ, conformationally constrained stapled 20-mer peptide of the IKKγ minimal interacting motif (L], for which, in experiment [2], the Ki stood at 257 nM.

Source of the values: publication PMC5686756, “IKKγ-Mimetic Peptides Block the Resistance to Apoptosis Associated with Kaposi's Sarcoma-Associated Herpesvirus Infection” (Journal of Virology, 2017).
